Data taken from patent publication US20250122306A1 (SUTRO BIOPHARMA, published 2025).
Changes are numbered by the printed parent chain.

B1: SRP2799-A05 (antibody, IgG1, V domains shown)
VH: EVQLVESGGGLVQPGGSLRLSCAASGFNISSYWIHWVRQAPGKGLEWVGYIDPYSGSTYYADSVKGRFTISADTSKNTAYLQMNSLRAEDTAVYYCARSDYYYVDEYMDYWGQGTLVTVSS
VL: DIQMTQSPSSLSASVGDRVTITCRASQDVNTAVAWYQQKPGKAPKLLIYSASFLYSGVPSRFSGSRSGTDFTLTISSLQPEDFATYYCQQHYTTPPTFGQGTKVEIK
notes: also called SRP2799-A05 (parent)
B2: SRP2799-B03 (antibody, IgG1, V domains shown)
VH: EVQLVESGGGLVQPGGSLRLSCAASGFNISDYWIHWVRQAPGKGLEWVGFIDPYNGYTNYADSVKGRFTISADTSKNTAYLQMNSLRAEDTAVYYCARGYGSWPDYLDYWGQGTLVTVSS
VL: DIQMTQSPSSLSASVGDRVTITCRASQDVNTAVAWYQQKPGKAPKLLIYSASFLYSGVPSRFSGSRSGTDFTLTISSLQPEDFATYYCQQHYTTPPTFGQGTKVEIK
notes: also called SRP2799-B03 (parent)
B3: SRP2799-B06 (antibody, IgG1, V domains shown)
VH: EVQLVESGGGLVQPGGSLRLSCAASGFNISDYNIHWVRQAPGKGLEWVGYIDPSNGYTYYADSVKGRFTISADTSKNTAYLQMNSLRAEDTAVYYCARDDQSVSSPFDYWGQGTLVTVSS
VL: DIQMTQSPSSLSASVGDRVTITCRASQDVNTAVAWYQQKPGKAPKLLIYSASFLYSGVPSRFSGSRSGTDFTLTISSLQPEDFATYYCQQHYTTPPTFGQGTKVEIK
notes: also called SRP2799-B06 (parent)
B4: SRP2900-H09 (antibody, IgG1, V domains shown)
VH: B3 VH with N28T, N33V, V103I, F107L
VL: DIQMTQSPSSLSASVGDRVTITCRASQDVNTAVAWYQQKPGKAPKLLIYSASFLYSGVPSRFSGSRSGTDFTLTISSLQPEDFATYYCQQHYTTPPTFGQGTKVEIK
B5: SRP2900-H11 (antibody, IgG1, V domains shown)
VH: B3 VH with N28T, D31S, N33I, L45P, D100P, S102T, V103L, S104T
VL: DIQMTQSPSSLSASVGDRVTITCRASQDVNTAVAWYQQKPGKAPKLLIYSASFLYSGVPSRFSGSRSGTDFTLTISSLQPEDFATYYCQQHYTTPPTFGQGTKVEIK
B6: mAb 46: aTF_2900-H09_HC_Y180/F404TAG_SerOpt; Trastuzumab LC SerOpt (antibody, human IgG1, kappa, V domains shown)
VH: B3 VH with N28T, N33V, V103I, F107L
VL: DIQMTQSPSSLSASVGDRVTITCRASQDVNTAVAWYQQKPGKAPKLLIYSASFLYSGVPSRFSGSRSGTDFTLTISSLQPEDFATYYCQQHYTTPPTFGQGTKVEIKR
modifications: non-natural amino acid (pAMF) at TAG sites Y180 and F404 (EU), * in the sequence
notes: unconjugated full-length IgG1/kappa
B7: mAb 42: aTF_2900-C11_HC_Y180/F404TAG_SerOpt; Trastuzumab LC SerOpt (antibody, human IgG1, kappa, V domains shown)
VH: B2 VH with N28T, D31Q, F50Y, N59Y, G99D, P104R, D105I, Y106R
VL: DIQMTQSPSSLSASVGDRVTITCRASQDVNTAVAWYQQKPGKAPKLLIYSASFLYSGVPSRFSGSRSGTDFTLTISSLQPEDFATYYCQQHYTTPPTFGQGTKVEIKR
modifications: non-natural amino acid (pAMF) at TAG sites Y180 and F404 (EU), * in the sequence
notes: as for B6
B8: mAb 43: aTF_2900-F06_HC_Y180/F404TAG_SerOpt; Trastuzumab LC SerOpt (antibody, human IgG1, kappa, V domains shown)
VH: B3 VH with N28T, D31I, N33T, F68L, D100P, V103I
VL: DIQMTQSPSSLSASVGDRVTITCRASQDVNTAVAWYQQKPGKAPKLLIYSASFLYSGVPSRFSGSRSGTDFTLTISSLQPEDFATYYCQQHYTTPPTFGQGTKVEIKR
modifications: non-natural amino acid (pAMF) at TAG sites Y180 and F404 (EU), * in the sequence
notes: as for B6
B9: mAb 44: aTF_2900-F09_HC_Y180/F404TAG_SerOpt; Trastuzumab LC SerOpt (antibody, human IgG1, kappa, V domains shown)
VH: B3 VH with N28T, S30H, N33V, V103I, F107L
VL: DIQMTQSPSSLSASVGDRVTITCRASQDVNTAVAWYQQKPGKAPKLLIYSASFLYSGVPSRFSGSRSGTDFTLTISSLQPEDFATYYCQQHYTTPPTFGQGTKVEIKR
modifications: non-natural amino acid (pAMF) at TAG sites Y180 and F404 (EU), * in the sequence
notes: as for B6
B10: mAb 45: aTF_2900-H06_HC_Y180/F404TAG_SerOpt; Trastuzumab LC SerOpt (antibody, human IgG1, kappa, V domains shown)
VH: B3 VH with N28T, S30A, D31A, N33I, V103F
VL: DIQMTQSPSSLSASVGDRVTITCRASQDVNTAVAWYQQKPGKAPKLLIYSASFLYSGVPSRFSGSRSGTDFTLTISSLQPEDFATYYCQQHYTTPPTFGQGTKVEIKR
modifications: non-natural amino acid (pAMF) at TAG sites Y180 and F404 (EU), * in the sequence
notes: as for B6
B11: mAb 47: aTF_2842-B01_HC3_Y180/F404TAG; aTF_2842-B01_LC1 (antibody, IgG1, V domains shown)
VH: EVQLVESGGGLVQPGGSLRLSCAASGFSISSYDMSWVRQAPGKGLEWIGIIGSNGRTYYPDSVKGRFTISRDNSKNTVTLQMNSLRAEDTAVYYCARGLYDGTGNIWGQGTLVTVSS
VL: DLQMTQSPSSLSASVGDRVTITCRASQSVYGNNWLSWYQQKPGKAPKLLIYGASKLASGVPSRFSGSGSGTQFTLTISSLQPEDFATYYCQGTYYSGDWYFAFGQGTKVEIKR
modifications: non-natural amino acid (pAMF) at TAG sites Y180 and F404 (EU), * in the sequence
notes: unconjugated full-length IgG1/kappa; also called 2842-B01 HC3/LC1
B12: mAb 48: aTF_2842-B01_HC1_Y180/F404TAG; aTF_2842-B01_LC3 (antibody, IgG1, V domains shown)
VH: B11 VH with E1Q, L4V, Q13K, V37I, P60A, D72N, N73T, S74N, K75E, T79Y
VL: B11 VL with L2I, R24Q, Q72D, Q105G
modifications: non-natural amino acid (pAMF) at TAG sites Y180 and F404 (EU), * in the sequence
notes: unconjugated full-length IgG1/kappa; also called 2842-B01 HC1/LC3
B13: mAb 49: aTF_2842-G04_HC2_Y180/F404TAG; aTF_2842-G04_LC2 (antibody, IgG1, V domains shown)
VH: QVQVQESGPGLVKPPGTLSLTCAVSGFSLSYYGVSWVRQPPGKGLEWIGTIDSSGRTYYNPSLKSRVTISNDNAPNTVSLKLSSVTAADTAVYYCARDFYGWNSGALDIWGQGTLVTVSS
VL: DLQLTQSPSTLSASVGDRVTITCRASQSVYSNKYLSWYQQKPGKAPKLLIYKASTLASGVPSRFSGSGSGTEFTLTISSLQPDDFATYYCAAAYSDDSDTAFGQGTKVEIKR
modifications: non-natural amino acid (pAMF) at TAG sites Y180 and F404 (EU), * in the sequence
notes: unconjugated full-length IgG1/kappa; also called 2842-G04 HC2/LC2

What follows are binders tested against tissue factor reagent of the Tissue Factor Activity Assay Kit (Abcam #ab108906) (UniProt P13726 33-295, limits assumed) (assay: cell-based or functional assay).

Binder | FX conversion (% inhibition), 1000 nM antibody [%]
B1 | 1.12
B2 | 2.41
B3 | -1.01
B4 | 4.48
B5 | -3.63

Target: T1, cynomolgus tissue factor on HEK293T-cynoTF cells (cynomolgus monkey, UniProt P13726 33-294 (human entry))
T1 construct: stably transfected HEK293T cells
T1 chain: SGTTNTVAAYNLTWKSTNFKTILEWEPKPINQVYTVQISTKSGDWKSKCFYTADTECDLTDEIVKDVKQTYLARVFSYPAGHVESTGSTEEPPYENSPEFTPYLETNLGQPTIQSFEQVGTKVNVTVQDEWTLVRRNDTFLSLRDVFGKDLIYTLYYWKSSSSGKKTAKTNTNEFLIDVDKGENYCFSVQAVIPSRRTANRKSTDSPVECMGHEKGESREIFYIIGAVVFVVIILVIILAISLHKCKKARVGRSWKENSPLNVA
Test: flow cytometry on HEK293T-cynoTF cells, one-site fit of MFI
Source text: (§1) HEK293T, BxPC3 cells (TF positive) and NCI-H1703 (TF negative) cells were obtained from ATCC (American Type Culture Collection) and maintained in DMEM: F12 (1:1), high glucose (Corning) supplemented with 10% heat-inactivated fetal bovine serum (ThermoScientific), 1× Penicillin/Streptomycin (Corning) and 2 mmol glutamax (Thermo Fisher Scientific). To generate cells that stably expressing human tissue factor (HEK293T-humanTF) or cynomolgus tissue factor (HEK293T-cynoTF), HEK293T cells were transfected with plasmid vectors that contain the corresponding protein sequence and stable clones were selected with puromycin.
(§2) For a fluorescence-activated cell sorting (FACS) cell-binding assay, cells were collected by Accutase and counted by the Vi-CELL Cell Viability Analyzersharvested and, then re-suspended in FACS buffer (DPBS buffer supplemented with 1% bovine serum albumin). A total of 200,000 cells in 100 μL were incubated on ice with 100 μL of anti-TF antibodies in each well of a 96-well plate. Cells were washed twice with ice-cold FACS buffer and then incubated on ice for 60 mins with 5 μg/mL Alexa 647-labeled donkey anti-human Fc antibody (Jackson ImmunoResearch). Unstained cells and cells stained with secondary antibody alone were used as controls. Cells were washed twice with FACS buffer and analyzed using a BD FACS Canto system. Geometric mean fluorescence intensities (MFI) were fitted using non-linear regression analysis with one site specific binding equation on GraphPad Prism (GraphPad Software; La Jolla, CA).

Binder | Bmax (MFI) | Kd [nM]
B6 | 483000 | 38
B7 | 426000 | 16
B8 | 419000 | 21
B9 | 429000 | 29
B10 | 441000 | 7.5
B11 | 501000 | 3.2
B12 | 486000 | 3.4
B13 | 465000 | 5.1

What follows are binders tested against T2, human tissue factor on cells (human, UniProt P13726 33-295) (assay: flow cytometry on HEK293T-humanTF cells, one-site fit of MFI).
T2 construct: cell-surface TF, transfected (HEK293T-humanTF) or endogenous (tumour lines, keratinocytes); the cell line is named under assay; also called HEK293T-humanTF; TF on BxPC3, primary human keratinocytes, NCI-H292, HCC1954, NCI-H1975
Source text: as §1, §2

Binder | Bmax (MFI) | Kd [nM]
B6 | 300000 | 0.93
B7 | 275000 | 0.8
B8 | 253000 | 1.7
B9 | 296000 | 0.9
B10 | 302000 | 1.3
B11 | 351000 | 3.3
B12 | 318000 | 2.3
B13 | 244000 | 1.4

The binders below were run against T2, human tissue factor on cells (assay: flow cytometry on BxPC3 cells (TF positive), one-site fit of MFI).
Source text: as §1, §2

Binder | Bmax (MFI) | Kd [nM]
B1 | 52700 | 26.1
B2 | 45400 | 4.7
B3 | 46300 | 4.1

Each binder was assayed against T3, human tissue factor (human TF, Lake Pharma) (human, UniProt P13726 33-251, limits assumed) (assay: Biacore SPR kinetics, antibody captured on anti-Fc, 1:1 Langmuir fit).
T3 construct: bought recombinant antigen; also called CD142
Experimental: (§3) Anti-Fc polyclonal antibodies were immobilized onto a CM4 chip (Cytiva #BR100534) using amine coupling chemistry (Human Antibody Capture Kit, Cytiva #BR100839). The immobilization steps were carried out at a flow rate of 25 μL/min in 1×HBS-EP+buffer (Cytiva #BR100669). The sensor surfaces were activated for 7 min with a mixture of N-hydroxysuccinimide (NHS, 0.05 M) and 1-ethyl-3-(3-dimethylaminopropyl)-carbodiimide (EDC, 0.2 M). The anti-Fc polyclonal antibodies were injected over all 4 flow cells at a concentration of 25 μg/mL in 10 mM sodium acetate, pH 4.5, for 7 min. Ethanolamine (1 M, pH 8.5) was injected for 7 min to block any remaining activated groups.
(§4) Off-rate and kinetic binding experiments were performed at 25° C. using 1×HBS-EP+buffer. Antibodies were injected over the anti-Fc surface at a concentration of 3 μg/mL for 12 seconds at a flow rate of 10 μL/min on flow cells 2, 3 and 4, followed by a buffer wash for 30 seconds at the same flow rate. Single point off-rate analysis was carried out using an antigen concentration of 100 nM. […] After capturing ligand (antibody) on the anti-Fc surface, the analyte (human TF, Lake Pharma; cynomolgus TF, Sino Bio #90885-C08H; mouse TF, R&D Systems #3178-PA) was bound for 180 seconds, followed by a 420 second dissociation phase at a flow rate of […]. Between each ligand capture and analyte binding cycle, regeneration was carried out using 2 injections of 10 mM glycine pH 2.0 for 30 seconds at 30 μL/min, followed by a 30 second buffer wash step.
(§5) The data were fit with the Biacore T200 Evaluation software, using a 1:1 Langmuir binding model. KD (affinity, nM) was determined as a ratio of the kinetic rate constants calculated from the fits of the association and dissociation phases.

Binder | Kd [nM] | koff [s⁻¹] | kon [M⁻¹ s⁻¹]
B6 | 6.24 | 0.00226 | 362000
B7 | 3.59 | 0.000674 | 188000
B8 | 19.1 | 0.00594 | 311000
B9 | 5.42 | 0.00196 | 362000
B10 | 7.78 | 0.00426 | 547000
B11 | 7.81 | 0.000422 | 54000
B12 | 17.4 | 0.00124 | 71200
B13 | 13.8 | 0.000865 | 62500

Target: T4, cynomolgus tissue factor (cynomolgus TF, Sino Bio #90885-C08H) (cynomolgus monkey, UniProt P13726 33-251 (human entry))
T4 construct: bought recombinant antigen; also called cyno TF
T4 chain: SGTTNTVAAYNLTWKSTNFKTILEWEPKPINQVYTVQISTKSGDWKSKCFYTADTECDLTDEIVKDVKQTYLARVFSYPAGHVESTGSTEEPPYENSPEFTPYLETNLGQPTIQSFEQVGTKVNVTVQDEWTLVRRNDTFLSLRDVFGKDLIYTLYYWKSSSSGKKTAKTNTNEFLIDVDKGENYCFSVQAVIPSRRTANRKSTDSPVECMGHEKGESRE
Test: as above
Experimental: as §3, §4, §5

Binder | Kd [nM] | koff [s⁻¹] | kon [M⁻¹ s⁻¹]
B6 | 41.6 | 0.00681 | 164000
B7 | 24.2 | 0.00309 | 128000
B8 | 7.33 | 0.00231 | 316000
B9 | 18.9 | 0.00309 | 164000
B10 | 0.255 | 0.000309 | 1.21e+06
B11 | 20.1 | 0.00166 | 82700
B12 | 60.7 | 0.00735 | 121000
B13 | 29.9 | 0.00241 | 80800

The binders below were run against T3, human tissue factor (human TF, Lake …) (assay: Biacore SPR, single-point off-rate (100 nM antigen), antibody captured on anti-Fc).
Experimental: as §3, §4

Binder | koff [s⁻¹]
B1 | 0.00304
B2 | 0.00415
B3 | 0.00827
B4 | 0.00169
B5 | 0.0025

Target: T4, cynomolgus tissue factor (cynomolgus …)
Test: as above
Experimental: as §3, §4

Binder | koff [s⁻¹]
B1 | 0.0337
B2 | 0.00169
B3 | 0.00166
B4 | 0.00584
B5 | 0.000946
